The results in this text go back to the supplement of paper PMC10567573.

B1: KRT18 (parent)
chain: RAQYDELARKNREELDKYWSQQIE
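Note: lentivirally expressed fusions sorted by FACS into six bins by GFP to DsRed ratio, PSI derived from sequencing read proportions per bin multiplied by bin number.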

The variants in the data set derive from B1. Put plainly: protein stability index of a GFP-peptide fusion (GPS, HEK-293T) (PSI 1-6); higher = more stable. To be noted: c terminus: a fixed tail appended.
As to RAQYDELARKNREELDCYWSQQIE [K17C], the protein stability index came to 3.28.

Turning to RAQYDELARKNQEELDKYWSQQIE [R12Q], the protein stability index is 4.12.

On to RAQYDELARKNTEELDKYWSQQIE [R12T], for which the protein stability index amounted to 4.19.

On to RAQYDELARKNYEELDKYWSQQIE [R12Y], for which the protein stability index turned out to be 4.05.

Regarding RAQYDELARKNSEELDKYWSQQIE [R12S], the protein stability index is 4.56.

For the variant RAQYDELARKNVEELDKYWSQQIE [R12V], the protein stability index was found to be 4.34.

Take RAQYDELARKNWEELDKYWSQQIE [R12W]: the protein stability index was 4.56.

Take RAQYDELARKNREELDKYWSQPIE [Q22P]: the protein stability index was found to be 3.83.

For RAQYDELARKNREELDKYWSQCIE [Q22C], the protein stability index turned out to be 2.31.

Regarding RAQYDELARKNREELDKYWSQKIE [Q22K], the protein stability index was 4.27.

Consider RAQYDELARKNREELDKYWSQMIE [Q22M], for which the protein stability index was 2.67.

RAQYDELARKNREELDKYWSQIIE [Q22I]: the protein stability index turned out to be 3.37.

As to RAQYDELARKNREELDKYWSQDIE [Q22D], the protein stability index came to 4.67.

With RAQYDELARKNREELDKYWSQNIE [Q22N], the protein stability index was 3.31.

For the variant RAQYDELARKNREELDKYWSQGIE [Q22G], the protein stability index amounted to 3.68.

In the case of RAQYDELARKNREELDKYWSQHIE [Q22H], the protein stability index was determined as 4.67.

With RAQYDELARKNREELDKYWSQEIE [Q22E], the protein stability index was determined as 3.7.

In the case of RAQYDELARKNREELDKYWSQFIE [Q22F], the protein stability index is 2.75.

As for RAQYDELARKNREELDKYWSQLIE [Q22L], the protein stability index is 3.15.

For the variant RAQYDELARKNREELDKYWSQAIE [Q22A], the protein stability index is 3.44.

For the variant RAQYDELARKNRVELDKYWSQQIE [E13V], the protein stability index was 2.07.

Turning to RAQYDELARKNRWELDKYWSQQIE [E13W], the protein stability index was 2.65.

For RAQYDELARKNRIELDKYWSQQIE [E13I], the protein stability index came out at 2.05.

On to RAQYDELARKNRGELDKYWSQQIE [E13G], for which the protein stability index came to 3.92.

Consider RAQYDELARKNRTELDKYWSQQIE [E13T], for which the protein stability index was found to be 3.82.

With RAQYDELARKNRQELDKYWSQQIE [E13Q], the protein stability index was 2.91.

Regarding RAQYDELARKNRNELDKYWSQQIE [E13N], the protein stability index was 3.58.

With RAQYDELARKNRCELDKYWSQQIE [E13C], the protein stability index was 2.81.

For the variant RAQYDELARKNRLELDKYWSQQIE [E13L], the protein stability index worked out at 3.07.

Turning to RAQYDELARKNRYELDKYWSQQIE [E13Y], the protein stability index was 3.05.

Take RAQYDELARKNRFELDKYWSQQIE [E13F]: the protein stability index worked out at 3.1.

For RAQYDELARKNRKELDKYWSQQIE [E13K], the protein stability index was 3.2.

As to RAQYDELARKNRDELDKYWSQQIE [E13D], the protein stability index was 3.54.

Turning to RAQYDELARKNRRELDKYWSQQIE [E13R], the protein stability index came to 3.31.

In the case of RAQYDELARKNRMELDKYWSQQIE [E13M], the protein stability index amounted to 2.82.

On to RAQYDELARKNRPELDKYWSQQIE [E13P], for which the protein stability index was determined as 2.99.

On to RAQYDELARKNRAELDKYWSQQIE [E13A], for which the protein stability index came to 3.41.

Turning to RAQYDELARKNRSELDKYWSQQIE [E13S], the protein stability index worked out at 3.96.

As to RAQYDELARKNRHELDKYWSQQIE [E13H], the protein stability index was 3.54.

Consider RAQYDELARKNREEIDKYWSQQIE [L15I], for which the protein stability index worked out at 3.94.

For the variant RAQYDELARKNREEDDKYWSQQIE [L15D], the protein stability index worked out at 4.9.

With RAQYDELARKNREEGDKYWSQQIE [L15G], the protein stability index was found to be 4.07.

Regarding RAQYDELARKNREECDKYWSQQIE [L15C], the protein stability index stood at 3.18.

For RAQYDELARKNREEHDKYWSQQIE [L15H], the protein stability index is 4.25.

On to RAQYDELARKNREEKDKYWSQQIE [L15K], for which the protein stability index was 3.87.

Take RAQYDELARKNREERDKYWSQQIE [L15R]: the protein stability index worked out at 4.22.

RAQYDELARKNREEWDKYWSQQIE [L15W]: the protein stability index was determined as 1.95.

With RAQYDELARKNREESDKYWSQQIE [L15S], the protein stability index stood at 4.19.

Consider RAQYDELARKNREENDKYWSQQIE [L15N], for which the protein stability index came to 3.57.

For the variant RAQYDELARKNREEPDKYWSQQIE [L15P], the protein stability index is 4.6.

For the variant RAQYDELARKNREEVDKYWSQQIE [L15V], the protein stability index is 3.41.

In the case of RAQYDELARKNREEYDKYWSQQIE [L15Y], the protein stability index stood at 3.3.

RAQYDELARKNREEQDKYWSQQIE [L15Q]: the protein stability index is 4.71.

Turning to RAQYDELARKNREEFDKYWSQQIE [L15F], the protein stability index came out at 3.22.

For RAQYDELARKNREEEDKYWSQQIE [L15E], the protein stability index is 3.98.

For RAQYDELARKNREEMDKYWSQQIE [L15M], the protein stability index came out at 4.06.

On to RAQYDELARKNREEADKYWSQQIE [L15A], for which the protein stability index turned out to be 4.37.

RAQYDELARKNREETDKYWSQQIE [L15T]: the protein stability index turned out to be 4.1.

Turning to RAQYDELARKNREELWKYWSQQIE [D16W], the protein stability index turned out to be 2.21.

Consider RAQYDELARKNREELNKYWSQQIE [D16N], for which the protein stability index worked out at 1.42.

With RAQYDELARKNREELGKYWSQQIE [D16G], the protein stability index turned out to be 2.03.

As to RAQYDELARKNREELRKYWSQQIE [D16R], the protein stability index was 3.08.

As for RAQYDELARKNREELSKYWSQQIE [D16S], the protein stability index turned out to be 2.36.

Turning to RAQYDELARKNREELPKYWSQQIE [D16P], the protein stability index turned out to be 3.63.

Consider RAQYDELARKNREELIKYWSQQIE [D16I], for which the protein stability index was 2.15.

Consider RAQYDELARKNREELAKYWSQQIE [D16A], for which the protein stability index was determined as 2.56.

In the case of RAQYDELARKNREELFKYWSQQIE [D16F], the protein stability index turned out to be 2.1.

For RAQYDELARKNREELQKYWSQQIE [D16Q], the protein stability index was determined as 2.69.

Regarding RAQYDELARKNREELHKYWSQQIE [D16H], the protein stability index is 3.35.

Turning to RAQYDELARKNREELTKYWSQQIE [D16T], the protein stability index was determined as 2.92.

In the case of RAQYDELARKNREELYKYWSQQIE [D16Y], the protein stability index worked out at 2.72.

Take RAQYDELARKNREELMKYWSQQIE [D16M]: the protein stability index stood at 2.74.

As for RAQYDELARKNREELCKYWSQQIE [D16C], the protein stability index turned out to be 2.4.

With RAQYDELARKNREELEKYWSQQIE [D16E], the protein stability index turned out to be 3.39.

On to RAQYDELARKNREELLKYWSQQIE [D16L], for which the protein stability index came out at 3.12.

As for RAQYDELARKNREELDKVWSQQIE [Y18V], the protein stability index worked out at 4.33.

Take RAQYDELARKNREELDKDWSQQIE [Y18D]: the protein stability index turned out to be 5.12.

Turning to RAQYDELARKNREELDKNWSQQIE [Y18N], the protein stability index turned out to be 4.92.

As to RAQYDELARKNREELDKSWSQQIE [Y18S], the protein stability index is 4.51.

Turning to RAQYDELARKNREELDKMWSQQIE [Y18M], the protein stability index stood at 4.36.

Turning to RAQYDELARKNREELDKAWSQQIE [Y18A], the protein stability index was 4.62.

For RAQYDELARKNREELDKCWSQQIE [Y18C], the protein stability index came to 3.95.

With RAQYDELARKNREELDKEWSQQIE [Y18E], the protein stability index was 5.17.

As to RAQYDELARKNREELDKTWSQQIE [Y18T], the protein stability index stood at 4.57.

As to RAQYDELARKNREELDKWWSQQIE [Y18W], the protein stability index amounted to 3.62.

In the case of RAQYDELARKNREELDKFWSQQIE [Y18F], the protein stability index was 3.5.

Consider RAQYDELARKNREELDKPWSQQIE [Y18P], for which the protein stability index amounted to 4.34.

Take RAQYDELARKNREELDKQWSQQIE [Y18Q]: the protein stability index was found to be 4.77.

As for RAQYDELARKNREELDKKWSQQIE [Y18K], the protein stability index worked out at 4.24.

For RAQYDELARKNREELDKLWSQQIE [Y18L], the protein stability index came to 4.6.

On to RAQYDELARKNREELDKGWSQQIE [Y18G], for which the protein stability index came to 4.27.

Turning to RAQYDELARKNREELDKRWSQQIE [Y18R], the protein stability index worked out at 4.09.

Consider RAQYDELARKNREELDKHWSQQIE [Y18H], for which the protein stability index is 4.06.

For RAQYDELARKNREELDKIWSQQIE [Y18I], the protein stability index was determined as 3.97.
